Laboratory results as given in patent US20110306057A1 (Dana-Farber, published 2011).

Key:
[1] = target: T1, wild type (WT) FLAG epitope-tagged version of PP2A Aβ (UniProt P30154 1-601); test: anti-FLAG (M2) co-IP from 293T cells, RalA immunoblot
T1 construct: also called wtPP2A Aβ; FLAG-tagged Aβ

[2] = target: T2, FLAG-epitope tagged PP2A Aα (UniProt P30153 1-589); test: as above
T2 construct: also called wtPP2A Aα; FLAG-tagged Aα

[3] = target: T3, cancer-derived FLAG-tagged PP2A Aβ mutant G8R (UniProt P30154 1-601); test: anti-FLAG (M2) co-IP from HEK TER cells, RalA immunoblot
T3 construct: Overexpressed in HEK TER cells; the shRNA-resistant form carries silent substitutions only; also called G8R Aβ mutant
Experimental: (§1) Immunoblot analysis was then performed using antibodies specific to RalA (BD Biosciences, San Jose, Calif.) and FLAG (M2).

[4] = target: T4, cancer-derived FLAG-tagged PP2A Aβ mutant V448A (UniProt P30154 1-601); test: as above
T4 construct: Overexpressed in HEK TER cells
T4 sequence (P30154 whole entry V448A): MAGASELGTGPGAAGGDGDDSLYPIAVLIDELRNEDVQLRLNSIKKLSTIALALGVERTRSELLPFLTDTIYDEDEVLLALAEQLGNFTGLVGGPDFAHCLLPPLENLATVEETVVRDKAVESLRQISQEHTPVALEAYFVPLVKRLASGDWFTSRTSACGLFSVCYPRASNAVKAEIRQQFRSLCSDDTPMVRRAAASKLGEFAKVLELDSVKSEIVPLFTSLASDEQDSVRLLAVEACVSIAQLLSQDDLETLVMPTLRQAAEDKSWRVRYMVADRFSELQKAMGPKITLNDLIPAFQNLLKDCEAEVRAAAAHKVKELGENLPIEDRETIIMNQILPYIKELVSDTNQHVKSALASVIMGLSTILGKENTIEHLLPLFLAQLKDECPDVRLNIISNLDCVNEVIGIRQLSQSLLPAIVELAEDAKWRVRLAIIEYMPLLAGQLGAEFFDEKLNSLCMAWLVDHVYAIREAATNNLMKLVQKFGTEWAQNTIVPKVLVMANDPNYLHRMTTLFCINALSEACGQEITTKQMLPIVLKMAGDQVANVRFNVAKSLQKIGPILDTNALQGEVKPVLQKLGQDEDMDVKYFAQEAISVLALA
Experimental: as §1

T2 sequence (P30153 whole entry): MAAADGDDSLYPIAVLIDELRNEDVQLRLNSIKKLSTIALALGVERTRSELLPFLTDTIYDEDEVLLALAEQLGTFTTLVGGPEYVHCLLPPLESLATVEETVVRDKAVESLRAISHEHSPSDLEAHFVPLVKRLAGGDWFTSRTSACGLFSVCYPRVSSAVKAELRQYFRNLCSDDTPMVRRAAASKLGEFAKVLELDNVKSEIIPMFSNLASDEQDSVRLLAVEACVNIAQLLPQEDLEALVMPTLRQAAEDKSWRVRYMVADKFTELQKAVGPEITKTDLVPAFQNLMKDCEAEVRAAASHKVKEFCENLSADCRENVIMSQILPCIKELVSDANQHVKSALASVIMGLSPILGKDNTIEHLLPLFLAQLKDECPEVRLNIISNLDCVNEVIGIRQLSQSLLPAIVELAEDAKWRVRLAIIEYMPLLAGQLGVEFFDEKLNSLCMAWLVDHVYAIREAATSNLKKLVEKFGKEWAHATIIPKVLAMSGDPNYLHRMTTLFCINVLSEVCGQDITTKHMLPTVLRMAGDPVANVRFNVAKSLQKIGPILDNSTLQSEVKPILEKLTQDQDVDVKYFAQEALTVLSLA
T3 sequence (P30154 other isoform, or with tags, fused parts or gaps limits assumed, stated change not applied): as the sequence (P30154 whole entry V448A) above, with G8R, A448V counted along it
T1 sequence (P30154 whole entry): as the sequence (P30154 whole entry V448A) above, with A448V counted along it

B1: endogenous RalA (enzyme)
chain: MAANKPKGQNSLALHKVIMVGSGGVGKSALTLQFMYDEFVEDYEPTKADSYRKKVVLDGEEVQIDILDTAGQEDYAAIRDNYFRSGEGFLCVFSITEMESFAATADFREQILRVKEDENVPFLLVGNKSDLEDKRQVSVEEAKNRAEQWNVNYVETSAKTRANVDKVFFDLMREIRARKMEDSKEKNGKKKRKSLAKRIRERC
notes: Endogenous protein in cell lysates; also called small GTPase RalA
binding result [1]: binds | binding result [2]: no binding | binding result [3]: no binding | binding result [4]: no binding
